This data set addresses HaWRI1_DBD (6-His-TRX-WRI1_DBD) (Helianthus annuus (CAS-6 line), UniProt X2BZR1 51-229). Description: EMSA; polydIdC; 20 mM Tris-HCl pH 8.0, 250 mM NaCl, 2 mM MgCl2, 1% glycerol, 1 mM DTT, 1 mg/mL BSA, 30 min room temperature, gels at 4 °C; DIG EMSA plus 0.05 µg/µL polydIdC. The following applies: protein: recombinant; tags: N-terminal 6xHis-thioredoxin fusion; label: digoxigenin; blunt.

HaWRI1_DBD (6-His-TRX-WRI1_DBD), sequence (X2BZR1 entry or part of it): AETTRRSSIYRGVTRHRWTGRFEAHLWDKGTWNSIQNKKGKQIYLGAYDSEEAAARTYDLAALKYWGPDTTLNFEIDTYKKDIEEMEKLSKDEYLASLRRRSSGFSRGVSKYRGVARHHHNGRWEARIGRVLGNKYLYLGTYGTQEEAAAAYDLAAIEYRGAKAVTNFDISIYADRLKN

B1: FATA1 AW box 24 bp (dsDNA)
DNA 1: CAGTCCTCGTGCATATCGGAGTCT
DNA 2: AGACTCCGATATGCACGAGGACTG
Turning to B1, the binding result is “binds”.

These data come from paper PMC9002759, “The Sunflower WRINKLED1 Transcription Factor Regulates Fatty Acid Biosynthesis Genes through an AW Box Binding Sequence with a Particular Base Bias”.
